Source: the DeepSol protein solubility set

Experiment: soluble on expression in E. coli; label from the status in PepcDB or PDB records
For “MQIGAKIRQLRIANQMTQEELADRAELSKGFISQIENDLTSPSINTLVDILQCLGTDLKTFFSDSEDKQIVFREKDYFSKTDNELKNTIEWVVPNSQKNAMEPIRMTLQPGGRSLEDHPHEGEEFGYVVKGSIEVHIGNECYRVNEGESFYFESTRKHYIVNVGESDAQVIWVSTPPTF”, the “soluble on expression in E. coli” value was “not soluble”. For “MQKIALCITGASGVIYGIKLLQVLEELDFSVDLVISRNAKVVLKEEHSLTFEEVLKGLKNVRIHEENDFTSPLASGSRLVHYRGVYVVPCSTNTLSCIANGINKNLIHRVGEVALKERVPLVLLVREAPYNEIHLENMLKITRMGGVVVPASPAFYHKPQSIDDMINFVVGKLLDVLRIEHNLYKRWRG”, the “soluble on expression in E. coli” value was “soluble”. For “MQLFDLPLDQLQTYKPEKTAPKDFSEFWKLSLEELAKVQAEPDLQPVDYPADGVKVYRLTYKSFGNARITGWYAVPDKEGPHPAIVKYHGYNASYDGEIHEMVNWALHGYATFGMLVRGQQSSEDTSISPHGHALGWMTKGILDKDTYYYRGVYLDAVRALEVISSFDEVDETRIGVTGGSQGGGLTIAAAALSDIPKAAVADYPYLSNFERAIDVALEEPYLEINSFFRRNGSPETEVQAMKTLSYFDIMNLAYRVKVPVLMSIGLIDKVTPPSTVFAAYNHLETKKELKVYRYFGHEYIPAFQTEKLAFFKQHLKG”, the “soluble on expression in E. coli” value was “soluble”. With “MQLQLICEDPSQQSHLDELAARWQLSHTDESDFALVLTAERLELRKVDEPKLGAIFVDLIGGAVGHRRKFGGGKGQAIAKAAGLNKGATPTVLDGTAGLGRDAFVLASLGCKVQMVERHPVVAALLDDGLARAKQDPEIGTWVSERMSLIHASSHDALDQLAQDREFVKPDVVYLDPMYPHPENKKKSALVKKEMRVFQSLVGADLDADGLLEPALALATKRVVVKRPDYANWLNEQKPSMAIETKKNRFDVYVKASMALEHHHHHH” the “soluble on expression in E. coli” value was “soluble”. In the case of “MQMESQRRDVFYVSDGTAITCETLGHVVLGQFAVQPNEKTFPFVESDEKLSELLKQIQRSYQLHGVKPLVFFSMVIPEMRTRLLQAPAHFYDVLESIVQRVSLDIEMEPAPKLQRSRSVGKDSDTYFDRIAAIEYTLAHDDGVSLKDLDRADIILLGVSRSGKTPTSLYMAMQFGLRVVNYPFIAEDMHAMRLLPEFEFHRHKLFGLTINAERLTEIRENRLAGSEYASNQQCQQELATVEALFRREAISYINTSSLSVEEISTRILERTGLKRRLF”, the “soluble on expression in E. coli” value is reported as “not soluble”. For “MQMNHPIYIASDHTGLELKSLVIKHLEQQKLQVIDLGPTELDPLDDYPDYAFLLAQTMQANPNSLGILICGTGVGVCMAANKAKGILAALVVDSKTAALARQHDDANVLCLSSRFVVPEENIKIVDEFLQAQFEGGRHSKRVGKIIAYEREK”, the “soluble on expression in E. coli” value was “soluble”. For “MQMNTQREQLIHIWLTSVLNSDEFKIQFLAGDASFRRYARVEYKNNTYMLMDAPPEKEDCVPFVHIDEFFDRHGVRVPHILAKDLVQGFLLLEDFGDVLLSTLLNAQTVNHYYLQAFAQLIHLQSIDGQDQFPAYTFEKLMAEMHLLTEWMLPSLDIQPSSAEQDIIQQTFELLANTALNQPQVIVHRDFHSRNLMKIQGEEELGVIDFQDAVIGADTYDLISITRDAYVQWGEDQVITWFEMFYDLLPDTSKHHRDFEQFKRDADFMAIQRHIKILGIFVRLFERDGKSSYLKDLPRVMWYLLQESRPYAELKPFVEFIQYQVMPKFEQKYGGYEVVKK”, the “soluble on expression in E. coli” value was “not soluble”. In the case of “MQNDAGQTVELYVPRKCSSSNRIIGPKDHASVQIDFVDVDPETGRMIPGKSTRYAICGAIRRMGESDDAILRLAQKDGLVPRDDVKSN”, the “soluble on expression in E. coli” value is reported as “not soluble”. In the case of “MQNEKTLRKIKKLLALSKSSNPHEAAKALEMAQKLMQENRINQVEIEFSQYHGKQKTAKKSARYVHQLVGVITRAFGVDAYMSNFYPDKDEAEEKMHVVFYGAEGRPEIASYCFDVLYRQLQTARKEFLATQSKRLKRSTLISRGDEFCQGWVFGVHENVKEFAMTPEEKGKLERYRYNGFKDLQTAKVRDAGETRDYGLALSQGYKQGSKVTLNHGVNGKETTKLGGDEMKENNGWIACNLGSA”, the “soluble on expression in E. coli” value is reported as “not soluble”. In the case of “MQNGAMKAWLDSSYLAGANQSYIEQLYEDFLTDPGSVDDSWRSIFQQLPTTGVKPDQLHSQTREYFRRLAKDSTRYNSSINDPDIDAKQVKVLQLINAFRFRGHQHANLDPLGLWKQESVPDLDPSYHNLTEADFQNTFNVGSFAIGKETMKLADLYAALKQTYCGSVGAEYMHITNTEEKRWIQQRIESVVGKPTFSDAEKRRFLSELTAAEGLERYLGAKFPGAKRFSLEGGDSLVTMLKEMIRHAGKNGTREVVLGMAHRGRLNVLINVLGKKPEDLFDEFAGKHKEHLGTGDVKYHQGFSSDVETEGGLVHLALAFNPSHLEIVSPVVIGSVRARRDRLDEARSNMVLPITIHGDAAITGQGVVQETLNMSQARGYEVGGTVRIVINNQIGFTTSNPLDARSTQYCTDIAKMVQAPIFHVNADDPEAVAFVTRLALDFRNTFKRDVMIDLVCYRRHGHNEADEPSATQPVMYQKIKKHPTPRKIYADKLIEQNIASLEDATEMVNLYRDALDHGDCVVEEWRPMNLQSFTWSPYLNHEWDEAYPSKVEMKRLQELARRISSAPEAIEMQSRVAKIYSDRALMASGEKPFDWGGAETLAYATLVDEGIPIRLSGEDAGRGTFFHRHAVIHNQKNGSVYVPLSNIHSGQGDFQVWDSVLSEEAVLAFEYGYATAEPRTLTIWEAQFGDFANGAQVVIDQFISSGEQKWGRMCGLVMLLPHGYEGQGPEHSSARLERYLQLCAEQNMQVCIPSTPAQVYHMIRRQALRGMRRPLIVMSPKSLLRHPLATSSLDELANGSFLPAIGEIDELDPKGIKRVVMCSGKVYYDLLEQRRKNGQTDVAIVRIEQLYPFPHQAVQSVLEQYAHVHDFVWCQEEPLNQGAWYCSQHNFREVIPFGASLRYAGRPASASPAVGYLSVHQKQQQALVNDALNVE”, the “soluble on expression in E. coli” value is reported as “not soluble”. In the case of “MQNMLSMHFFSVMASLNAMASMRVIVFLYQLSILGDCSTIDSLRDLMISQIVLAYNCISVHVNMYISTNGSEASIASRMSTLESCLFLITMNKGSASFGKRRFFYRDLA”, the “soluble on expression in E. coli” value is reported as “soluble”. With “MQQLPKLDLKNKVSAQEWQLRVDLAACYRLLQMHGWDDLIHTHISVCIPGTEHILINAFGLAFEEITASNLVKIDIKGNIIDKDCPFEINPAGFTIHSAVHEVRHDDICALHVHTNETIAVASVEEGLLPLSQYSMFALASMSYHDYEGLAVNDDEKLRLQNDLGDKNFMLLRNHGALTMGKTIGDAFMHMYDLTRACQIQLQVMATGMKPIYAPQSIIDGIKAQANIVHDGETGGQKAWPAMLRRVYRNDPTFAE” the “soluble on expression in E. coli” value was “not soluble”. In the case of “MQQSYNPQNSLTATTSYSEQEIVCICESLFNEGLQTGRTEQLANFIYNLPQCYQVMESVLKAQALVYFTTQNWKMLYKLLECSKFSPHNHTVLQNLWLDAHYKEAAKTKDRELGAVCKYRIRKKNPFPNTIWDGEETNYCFKSKSRNVLRDAYKKCQYPSVEDKRRLAQQTELSIIQVSNWFKNKRQRERAAGQLDRSSARSNDSDDGSSGCESKPPMNIDSPAPPPLPTSFDLQPYYPSPYTFAPHCDFSYIQNL”, the “soluble on expression in E. coli” value is reported as “not soluble”. For “MQRETGSERVDVDMEKPGMISRWYDDKGFGFILPKTGGEEVFLHISAFRGDRRPRQGDQVWFLASQDAQGRLRAERARLDALTIDPPTVRRGAQAPVTRAQARPAPTPPSALQRPLA”, the “soluble on expression in E. coli” value was “not soluble”. With “MQRHERIRFFITEQCRNLDPTYRNYMYPKQILLGDVPLPLLPNSSLTFRVNSAEKICFRIRLSIDDSQEPLNIGIPLSQVESVSIKDHSAKHPEPALLFLLKKGALERFIQVCNPLLGELHTYHGRKRKMLTYLTVILGMDPHLEQPNPVYCRVSLMANKFTFPFGTAKKILLKDLPIMWQEVLDKQYDRRLKTGIHHDRERMAEMDDEAWDWLMSFLNVKWDKCPSGGRWFVRDKDEILQSNEKLHHKMIYWLNQ” the “soluble on expression in E. coli” value was “not soluble”. With “MQSATDVAEYCKYDGFDGLKRAISLSDEEILNELDIAHLRGRGGAAYPLGKKWRHLYHAKGTTKYIVCNADEGEPGTFKDKVLLSEDPLSVIEGMIIAGYLFSAKAGYIYMRGEYRRIQKTFQEALDNARQAGFLGENILGIEGFNYDITIISGAGAYICGENSALLNSIEGKTGRPRVKPPHLADVGLYLQPTLVNNVESFASVPVILREGGQAFLEMGTADGGGTKLICLSGHIKNRGLYEVNLGTPLEEIIYGEQYGGGSATGRALKFIHFGGQSGPIGAVATLRDCLYSYEDLWAHDLSVGSGAIVVMDDSVNVVDYLVHVAAFFAHESCGKCTPCRLGTTRILELLSKFNRNEATASDLPRLEKMLTHVTRLSACGLGQSVANPMKSALALFPEEFETTAETEIYATSKGGWLEHHHHHH” the “soluble on expression in E. coli” value was “not soluble”. In the case of “MQSDHKEKIAILVDVQNVYYTCREAYRSNFDYNQFWYVATQEKEVVSAKAYAIASNDPKQRQFHHILRGVGFEVMLKPYIQRRDGSAKGDWDVGITLDAIEIAPDVDRVILVSGDGDFSLLVERIQQRYNKKVTVYGVPRLTSQTLIDCADNFVAIDDDFLL”, the “soluble on expression in E. coli” value is reported as “soluble”. With “MQSTATYGSTISSGTSRTLKITEIGGSNLTSGMSPFGGHAASAIRESRTREKKEMSELNDRLASYIEKVRFLEAQNRKMEKDLNLLRGKWGHDSTSVKVMYETELRSAKDLIADSDKERAQLEDQIKKLVEELNNYRNKLHEAERGADVTRKELDNVLGRLGALEAEIELLKRRISLMEESIGHLKRENHRMIDSLHHARIFQAVEQETLNRIDYQNQVQTLLEECDFIRRIHDSEIHDLLAMASRDTTVENREYFKNELSSAIREIRSEYDHVSNTTRTDIESWYKLKVQEIHTQNSRNCLEQNYAREEVKRLRTTLGDMRGKMADLEGRNLLLEKQIEDLNYQMEEDMRSYEQSLNDKDTSINKLRDESKILMVELQMLIDTKQTLDAEIVIYRKMLDGEENRAGLRQLVEQVVKTTSIHQTKEIESLRVLKGETTSHSSYSRSAKGNIAIQEAEPSGKYIVLENISRRDENIGDWKLRRKIAGKREIVFTFPREFTLRAQKSVKIFARGQGVHSPPDSLVYDLEDSFGTGNDVVTTLYNKEGEDRASHSQRASHT” the “soluble on expression in E. coli” value was “not soluble”. For “MQSWYLLYCKRGQLQRAQEHLERQAVSCLTPMITLEKMVRGKRTSVSEPLFPNYLFVEFDPEVIHTTTINATRGVSHFVRFGAHPAIVPSSVIHQLSIYKPEGVVDPETPYPGDSVIITEGAFEGLKAIFTEPDGETRSMLLLNLLNKEVKQSVKNTGFRKI”, the “soluble on expression in E. coli” value was “not soluble”. In the case of “MQTETIHNIPYVNSNLTSFIDYLEKHYIDQKIGAVISTVNPEIAFAAIKDRDYFDVLSSSNFILPDGIGVVMMSRLTNNRLQSRIAGYDVFKELLGVANKKKKRIFLYGAKKDVIKGVVSKISSEYPNIKIAGYSDGYVQDRTLVAKQIARANPDMVFVALGYPHQEKFIHNYRHLFPKAVSIGLGGSFDVFSGNVKRAPSWMIRLNLEWFYRLILNPWRWKRMLSIPKYALTVLKEEKNKKTFYPKPEKDHTKQI”, the “soluble on expression in E. coli” value is reported as “not soluble”. For “MQTNLERIKKHIEKLDTFTATPGQGTTRLTYSKEDLDARNYLKQEMAKVGLTVSEDAIGNIYGRLEGESPDLPAVIVGSHFDSVPNGGAFDGPAGVITGLEVASVFHEQQIKPHFPLEIIAMVEEEGSRFGAGLLASRAITGKVTTEMLHEMKDIDGITATDAMAKLGFNANRVHRAIRTKESVKAFIELHIEQGPILENASEDVALVDTVVGLTQIKVTVKGQAGHAGTTPMLDRKDALVSAVEILGQLPELAIQEGGGTVLTVGKLNVYPNGANVIPDKVIFTVDIRAKDEIHVQNTLAKTKEIIQATEKNGITCEIKDMIYQQPTHLSKEIHQALTESADQLGFKYRTMVSGAGHDAMIFASLTEVGLIFVPSHNGISHAPEEWTDYDKLQKGIEVVLKTVKKWTEESANESENKTNSFK”, the “soluble on expression in E. coli” value was “not soluble”.
